The record followed here is patent US20240182909, “Checkpoint Aptamers as Therapeutics for Cancer Treatment” (Ayass Bioscience LLC, published 2024).

Common to all, as to conditions: label: biotin
Data set [1] deals with T1, CTLA4 (cytotoxic T-lymphocyte associated protein 4) (UniProt P16410 P16410:36-161). The data set can be described thus: ELONA; 5.0 uM biotinylated aptamer on immobilised CTLA4 (5.0 ug/mL), competed with soluble protein. The protocol: (§1) FIGS. 3A, 3B, and 3C show the assessment of competitive specificity of CTLA4 aptamers, R2-13, R2-25, R2-63, R2-81, R3-20, and R3-56 to CTLA4 protein in presence of CTLA4, NKG2A, and PD-1 proteins. ELISA-based competition assay for the specificity of the binding of CTLA4 aptamers, R2-13, R2-25, R2-63, R2-81, R3-20, and R3-56. CTLA4 protein (5.0 ug/mL) was immobilized on a MaxiSorp plate. Biotinylated CTLA4 aptamers on 5.0 uM concentration were added in the presence of different concentrations of CTLA4, PD-1, or NKG2A proteins, respectively. The bound aptamer was detected using Streptavidin-HRP and assessed by ELISA. The absorbance of each well was monitored at 450 nm on an automatic microplate reader. The percent inhibition was calculated using the formula, Percent inhibition=[1−(Ainhibitor/Auninhibitor)]×100.

Data set [2] addresses T2, NKG2A (UniProt P26715 P26715:94-233). Description: competition; NKG2A as soluble competitor for aptamer binding to immobilised CTLA4. The protocol:
as §1

Data set [3] deals with T3, PD-1 (UniProt Q15116 Q15116:25-170). Description: competition; PD-1 as soluble competitor. The protocol: as §1
For data set [4], the target named is T3, PD-1. Description: competition; PD-1 as soluble competitor for aptamer binding to immobilised CTLA4. The protocol:
as §1

For data set [5], the target named is T2, NKG2A. The data set can be described thus: ELONA; direct and competitive ELISA; 100-fold excess unlabelled aptamer as competitor. Here is the method: FIGS. 2A and 2B show aptamer, R2-13, specific binding to CTLA4 and NKG2A is determined by Direct and Competitive ELISA assay. ELISA-based competition assay for the binding of the CTLA4 aptamer, R2-13, to CTLA4 protein and to NKG2A protein. CTLA4 protein and NKG2A protein were immobilized on a MaxiSorp plate and biotinylated R2-13 on different concentrations were added in the absence and presence of 100-fold excess of non-biotinylated respective R2-13. The bound aptamer was detected using Streptavidin-HRP and assessed by ELISA. CTLA4 protein was immobilized on a MaxiSorp plate and biotinylated R2-13 on different concentrations were added in the absence and presence of 100-fold excess of non-biotinylated respective R2-13. The bound aptamer was assessed by ELISA.
(In general: ELISA stands for enzyme-linked immunosorbent assay.)

Data set [6] deals with T1, CTLA4 (cytotoxic T-lymphocyte …). The data set is described as above.
The target of data set [7] is Bovine serum albumin (BSA) (Bos taurus, UniProt P02769 P02769:25-607). Description: ELONA; BSA-coated plate.
The target in data set [8] is T3, PD-1. The data set can be described thus: competition; PD-1 as soluble competitor; called R2-25 in figure legend. The protocol: as §1
For data set [9], the target named is T1, CTLA4 (cytotoxic T-lymphocyte …). The data set can be described thus: ELONA; called R2-25 in figure legend; 5.0 uM biotinylated aptamer on immobilised CTLA4, competed with soluble protein. The protocol:
as §1

T2 sequence (P26715 94-233, one chain of several): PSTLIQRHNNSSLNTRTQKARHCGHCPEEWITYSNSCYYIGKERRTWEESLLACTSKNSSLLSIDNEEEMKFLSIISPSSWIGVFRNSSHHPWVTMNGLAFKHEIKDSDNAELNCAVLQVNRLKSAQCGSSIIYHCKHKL
T3 sequence (Q15116 25-170, one chain of several): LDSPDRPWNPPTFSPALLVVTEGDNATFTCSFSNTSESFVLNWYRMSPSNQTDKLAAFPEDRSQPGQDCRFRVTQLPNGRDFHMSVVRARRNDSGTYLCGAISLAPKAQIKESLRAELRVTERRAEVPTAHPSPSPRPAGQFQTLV
T1 sequence (P16410 36-161, one chain of several): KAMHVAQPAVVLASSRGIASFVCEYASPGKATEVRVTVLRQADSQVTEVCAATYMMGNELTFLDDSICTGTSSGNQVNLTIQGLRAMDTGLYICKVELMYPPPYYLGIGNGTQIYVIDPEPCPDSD
Sequence of Bovine serum albumin (BSA) (P02769 25-607, one chain of several): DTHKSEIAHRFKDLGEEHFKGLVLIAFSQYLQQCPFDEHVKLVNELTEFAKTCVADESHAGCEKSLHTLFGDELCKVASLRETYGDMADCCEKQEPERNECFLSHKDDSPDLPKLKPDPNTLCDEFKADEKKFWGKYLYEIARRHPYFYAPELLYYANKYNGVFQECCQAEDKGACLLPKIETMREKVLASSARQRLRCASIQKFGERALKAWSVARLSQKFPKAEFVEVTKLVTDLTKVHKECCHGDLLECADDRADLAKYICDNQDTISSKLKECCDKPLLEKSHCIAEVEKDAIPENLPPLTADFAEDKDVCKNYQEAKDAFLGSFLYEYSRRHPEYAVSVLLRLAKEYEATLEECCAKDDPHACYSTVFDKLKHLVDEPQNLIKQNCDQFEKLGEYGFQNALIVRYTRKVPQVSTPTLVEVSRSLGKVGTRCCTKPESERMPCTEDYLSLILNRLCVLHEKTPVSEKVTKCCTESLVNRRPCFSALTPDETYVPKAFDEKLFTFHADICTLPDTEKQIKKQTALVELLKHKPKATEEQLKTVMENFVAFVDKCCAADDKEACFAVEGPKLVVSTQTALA

For TTGTTGCAGGCGACGTGCGTGGGCGCACGGCCTGCAACAA (ssDNA, deoxyuridine (dU) in place of every T) [ctla4_R3_56], the binding result is “binds” in data set [1], “binds” with NKG2A [2] and “no binding” in the data set with PD-1 [3].
As to ACACTTTTCCCCCACCTGATCCTCAGTTCCGGAAAAGTGT (ssDNA, deoxyuridine (dU) in place of every T) [ctla4_R2_13], the binding result is given as “no binding” with PD-1 [4], “binds” in the data set with NKG2A [5], “binds” in data set [6] and “no binding” in [7].
For the molecule ACTTACAACTGCGCACGCGGGACCTCCGAGAGTTGTAAGT (ssDNA, deoxyuridine (dU) in place of every T) [ctla4_R2_81], the binding result in [1] is listed as “binds”; in the data set with NKG2A [2], “binds”; with PD-1 [3], “no binding”.
Take GACCTGCCGGCGGAGCTGCGTCCCGCTGCACCGGCAGGTC (ssDNA, deoxyuridine (dU) in place of every T) [ctla4_R3_20]: the binding result is “binds” in data set [1], “binds” with NKG2A [2] and “no binding” with PD-1 [3].
GACTTCGCGGAGGTAAACTGCACGGGGGTGCCGCGAAGTC (ssDNA, deoxyuridine (dU) in place of every T) [ctla4_R3_25]: the results for the binding result (with PD-1 [8]; with NKG2A [2]; in data set [9]) were “no binding”, “binds” and “binds”, respectively.
